Test results published in the supplement of paper PMC10724198.
± gives the standard deviation of the averaged measurements.

Experiments:
Saccharomyces cerevisiae [1] = assay: protein stability index of tFT-peptide fusion (C-terminal peptide) (PSI (0-1 scale)); higher = more stable (slower turnover)
Method: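 MPS profiling in S. cerevisiae of the tFT-X12 degron library: putative degron peptides plus stable controls, 12 aa, fused to the C-terminus of a sfGFP-mCherry timer. Cells are FACS-sorted into 8 mCherry/sfGFP bins and deep-sequenced. PSI runs from 0 (unstable) to 1 (stable). Backgrounds are wild type, das1Δ and doa10Δ at 30 °C, and wild type, das1Δ, cdc34-1 and cdc53-1 at 37 °C; 2-3 technical replicates each.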

Saccharomyces cerevisiae [2] = assay: as above; settings: genetic background: wild type; temperature: 30 C
[3] = genetic background: cdc34-1, temperature: 37 C
[4] = genetic background: cdc53-1, temperature: 37 C
[5] = genetic background: das1 deletion, temperature: 30 C
[6] = genetic background: das1 deletion, temperature: 37 C
[7] = genetic background: doa10 deletion, temperature: 30 C
[8] = genetic background: wild type, temperature: 30 C
[9] = genetic background: wild type, temperature: 37 C
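Note: PSI is a weighted mean of sequencing reads over stability bins, variants kept only with over 10 reads, mCherry proximal and sfGFP distal, peptide attached via GGGS linker.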

Row | Sequence | protein stability index (Saccharomyces cerevisiae [1]; [3]) | protein stability index (Saccharomyces cerevisiae [1]; [4]) | protein stability index (Saccharomyces cerevisiae [1]; [5]) | protein stability index (Saccharomyces cerevisiae [1]; [6]) | protein stability index (Saccharomyces cerevisiae [1]; [7]) | protein stability index (Saccharomyces cerevisiae [1]; [8]) | protein stability index (Saccharomyces cerevisiae [1]; [9]) | protein stability index (Saccharomyces cerevisiae [2])
1 | PLLPCRPILFLL | 0.559 ± 0.072 | 0.627 ± 0.027 | 0.558 ± 0.028 | 0.6615 ± 0.0026 | 0.125 ± 0.0042 | 0.117 ± 0.014 | 0.182 ± 0.038 | 0.197 ± 0.043
2 | PLLPLPRFPLFA | 0.547 ± 0.018 | 0.558 ± 0.038 | 0.411 ± 0.03 | 0.595 ± 0.021 | 0.332 ± 0.009 | 0.367 ± 0.013 | 0.529 ± 0.019 | 0.41 ± 0.021
3 | PLSDPLRVILIM | 0.55 ± 0.016 | 0.633 ± 0.06 | 0.501 ± 0.0089 | 0.627 ± 0.014 | 0.188 ± 0.0023 | 0.22 ± 0.023 | 0.328 ± 0.017 | 0.443 ± 0.063
4 | PPPPTPRPLLPP | 0.662 ± 0.011 | 0.7253 ± 0.0031 | 0.677 ± 0.034 | 0.73 ± 0.021 | 0.666 ± 0.039 | 0.667 ± 0.011 | 0.697 ± 0.012 | 0.449 ± 0.029
5 | PPPRLPLLSCSQ | 0.661 ± 0.025 | 0.679 ± 0.0094 | 0.669 ± 0.016 | 0.6752 ± 0.00072 | 0.632 ± 0.024 | 0.638 ± 0.034 | 0.66 ± 0.022 | 0.408 ± 0.013
6 | PPPSRRLTLRLA | 0.612 ± 0.035 | 0.6993 ± 0.0065 | 0.681 ± 0.02 | 0.698 ± 0.009 | 0.179 ± 0.017 | 0.21 ± 0.02 | 0.397 ± 0.015 | 0.292 ± 0.041
7 | PPWRPVALLLLA | 0.206 ± 0.029 | 0.259 ± 0.022 | 0.247 ± 0.022 | 0.384 ± 0.007 | 0.0824 ± 0.02 | 0.0841 ± 0.018 | 0.117 ± 0.077 | 0.156 ± 0.013
8 | PRFCVYARFHNT | 0.713 ± 0.016 | 0.748 ± 0.01 | 0.649 ± 0.036 | 0.722 ± 0.054 | 0.298 ± 0.023 | 0.375 ± 0.033 | 0.567 ± 0.02 | 0.387 ± 0.022
9 | PRFWFYLSYSVH | 0.429 ± 0.044 | 0.514 ± 0.012 | 0.373 ± 0.044 | 0.533 ± 0.015 | 0.3014 ± 0.0016 | 0.344 ± 0.02 | 0.493 ± 0.01 | 0.431 ± 0.032
10 | PSPPPPLPPHPS | 0.688 ± 0.039 | 0.7321 ± 0.0069 | 0.69 ± 0.031 | 0.72 ± 0.01 | 0.685 ± 0.019 | 0.667 ± 0.013 | 0.716 ± 0.032 | 0.721 ± 0.025
11 | PSPPPPRPASPS | 0.7 ± 0.052 | 0.7492 ± 0.0073 | 0.651 ± 0.0084 | 0.72829 ± 0.00037 | 0.667 ± 0.048 | 0.652 ± 0.015 | 0.719 ± 0.0084 | 0.439 ± 0.023
12 | PSTLVITVVITK | 0.247 ± 0.019 | 0.29 ± 0.0099 | 0.279 ± 0.029 | 0.4255 ± 0.0021 | 0.23 ± 0.023 | 0.243 ± 0.03 | 0.389 ± 0.02 | 0.37 ± 0.038
13 | PYHAPRPPFSLF | 0.511 ± 0.05 | 0.68 ± 0.0087 | 0.667 ± 0.021 | 0.7543 ± 0.0025 | 0.0708 ± 0.013 | 0.0545 ± 0.017 | 0.111 ± 0.04 | 0.149 ± 0.0084
14 | QARQLEMYMVVF | 0.638 ± 0.066 | 0.532 ± 0.12 | 0.403 ± 0.041 | 0.579 ± 0.02 | 0.379 ± 0.015 | 0.418 ± 0.013 | 0.544 ± 0.0069 | 0.432 ± 0.0045
15 | QCKHIVRKIKLH | 0.426 ± 0.089 | 0.61 ± 0.11 | 0.617 ± 0.014 | 0.737 ± 0.018 | 0.117 ± 0.016 | 0.0952 ± 0.034 | 0.147 ± 0.014 | 0.186 ± 0.025
16 | QDFFYCLLVATS | 0.155 ± 0.0058 | 0.276 ± 0.015 | 0.21 ± 0.038 | 0.3605 ± 0.003 | 0.174 ± 0.0022 | 0.205 ± 0.03 | 0.305 ± 0.0038 | 0.317 ± 0.029
17 | QGILVGCCYVLC | 0.426 ± 0.024 | 0.4409 ± 0.00073 | 0.313 ± 0.021 | 0.5035 ± 0.00077 | 0.2731 ± 0.0018 | 0.3 ± 0.023 | 0.4657 ± 0.0015 | 0.386 ± 0.022
18 | QLGGKVGNCHVV | 0.683 ± 0.046 | 0.7507 ± 0.0047 | 0.6644 ± 0.0051 | 0.732 ± 0.025 | 0.668 ± 0.05 | 0.652 ± 0.009 | 0.715 ± 0.034 | 0.75 ± 0.021
19 | QVGRPRVGFSRR | 0.704 ± 0.035 | 0.7483 ± 1.4e-05 | 0.652 ± 0.0075 | 0.75 ± 0.016 | 0.657 ± 0.016 | 0.66 ± 0.02 | 0.7302 ± 0.0063 | 0.764 ± 0.014
